Results: patent US20110190477A1 (G2 INFLAMMATION, published 2011)
No end group written: not given here. *: point of attachment. Biotin = O=C1N[C@H]2[C@H](CS[C@H]2CCCCC(=O)*)N1

T1: peptide PEP1 (residues 9-29 of human C5aR) (human)
T1 construct: Coated directly on a MaxiSorp plate; also called N-terminal 9-29 peptide
T1 peptide: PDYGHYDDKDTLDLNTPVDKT

T2: peptide 9 (12 mer from the 2nd extracellular loop of human C5aR) (human)
T2 construct: worked out from 22 12 mers offset by one over 173-205; also called peptide no
T2 peptide: Biotin-SGSGYFPPKVLCGVDY

T3: peptide 11 (12 mer from the 2nd extracellular loop of human C5aR) (human)
T3 construct: worked out from 22 12 mers offset by one over 173-205; also called peptide no; 11
T3 peptide: Biotin-SGSGPPKVLCGVDYSH

T4: peptide 12 (12 mer from the 2nd extracellular loop of human C5aR) (human)
T4 construct: worked out from 22 12 mers offset by one over 173-205; also called peptide no; 12
T4 peptide: Biotin-SGSGPKVLCGVDYSHD

T5: peptide 15 (12 mer from the 2nd extracellular loop of human C5aR) (human)
T5 construct: worked out from 22 12 mers offset by one over 173-205; also called peptide no; 15
T5 peptide: Biotin-SGSGLCGVDYSHDKRR

T6: peptide 16 (12 mer from the 2nd extracellular loop of human C5aR) (human)
T6 construct: worked out from 22 12 mers offset by one over 173-205; also called peptide no; 16
T6 peptide: Biotin-SGSGCGVDYSHDKRRE

T7: peptide 18 (12 mer from the 2nd extracellular loop of human C5aR) (human)
T7 construct: worked out from 22 12 mers offset by one over 173-205; also called peptide no; 18
T7 peptide: Biotin-SGSGVDYSHDKRRERA

T8: peptide 19 (12 mer from the 2nd extracellular loop of human C5aR) (human)
T8 construct: worked out from 22 12 mers offset by one over 173-205; also called peptide no; 19
T8 peptide: Biotin-SGSGDYSHDKRRERAV

T9: peptide 20 (12 mer from the 2nd extracellular loop of human C5aR) (human)
T9 construct: worked out from 22 12 mers offset by one over 173-205; also called peptide no; 20
T9 peptide: Biotin-SGSGYSHDKRRERAVA

T10: peptide 21 (12 mer from the 2nd extracellular loop of human C5aR) (human)
T10 construct: worked out from 22 12 mers offset by one over 173-205; also called peptide no; 21
T10 peptide: Biotin-SGSGSHDKRRERAVAI

T11: peptide 1 (12 mer from the 2nd extracellular loop of human C5aR) (human, not fully specified)
T11 construct: worked out from 22 12 mers offset by one over 173-205; also called peptide no
T11 peptide: Biotin-SGSGLYRVVREEYFPP

T12: peptide 2 (12 mer from the 2nd extracellular loop of human C5aR) (human)
T12 construct: worked out from 22 12 mers offset by one over 173-205; also called peptide no
T12 peptide: Biotin-SGSGYRVVREEYFPPK

T13: peptide 5 (12 mer from the 2nd extracellular loop of human C5aR) (human)
T13 construct: worked out from 22 12 mers offset by one over 173-205; also called peptide no
T13 peptide: Biotin-SGSGVREEYFPPKVLC

T14: peptide 6 (12 mer from the 2nd extracellular loop of human C5aR) (human)
T14 construct: worked out from 22 12 mers offset by one over 173-205; also called peptide no
T14 peptide: Biotin-SGSGREEYFPPKVLCG


What was measured:
[1] = biological target: T1, peptide PEP1 (residues 9-29 of human …); assay: ELISA, PEP1 coated at 10, 2 and 1 µg/ml
Protocol: A 384-well MaxiSorp plate (Nunc) was coated with a peptide corresponding to residues 9-29 of human C5aR (PEP1), at concentrations of 1-15 μg/ml in PBS/0.01% Tween-20 at 37° C. for 1.5 hours, then washed 3 times. The plate was blocked with 20 μl of blocking buffer (1% w/v BSA in PBS) per well for overnight at 4° C. The plate was washed 3 times with PBS/Tween buffer (0.05% v/v Tween-20 in PBS). 20 μl antibody (final concentration 5 μg/ml) was added to each well and the plate was incubated for 2 hours at 37° C. The plate was washed 3 times as above then 20 μl HRP-conjugated anti-human IgG kappa (1:8000 dilution in PBS/Tween 20) or HRP-conjugated anti-mouse IgG (1:7500 dilution) was added to each well. After a 2 hour incubation at room temperature the plate was washed 4 times (as above). The presence of peroxidase was detected by adding 20 μl of freshly prepared TMB Substrate reagent (BD Opt EIA) to each well and incubating at room temperature for 20 min. Finally after stopping the reaction with 20 μl 1M H₂SO₄ per well the plate was read at 450 nm (reference 620 nm) in a plate reader.
However, the anti-C5aR (CD88) mAb S5/1 (AbD Serotec, Cat No. MCA1283) which was raised against the human C5aR N-terminal peptide 1-31 did bind PEP1 at 5 μg/ml as expected.

[2] = biological target: T2, peptide 9 (12 mer from the 2nd …); assay: peptide ELISA, biotin peptide on streptavidin plate
From the text: (§1) A set of 22 overlapping peptides (12 mers), each offset by 1 residue from the next, spanning the second extracellular loop (3rd extracellular domain) of human C5aR was synthesised (Mimotopes, Melbourne). Each peptide was made with a biotin group and 4-amino acid linker (SGSG) at its N-terminus. One peptide synthesised, no. 23, was a 33 mer, representing the full length of the 2nd extracellular loop of hC5aR (residues 173-205 from SEQ ID NO:37), also had biotin-SGSG at the N-terminus.
(§2) The experiment was conducted by binding the peptides to a 384-well streptavidin-coated plate then incubating the antibodies with the peptides and detecting bound antibody with an anti-mouse IgG conjugated to horse radish peroxidase (HRP) as follows. Each peptide was dissolved in 200 μl of 60% DMSO to a concentration of 10 mg/ml. Peptides were further diluted 1:1000 to a working strength of 10 μg/ml with PBS/Tween 20/azide solution (0.1% w/v sodium azide in PBS/0.05% Tween 20).
(§3) A 384 well streptavidin-coated plate (Nunc) was blocked with 20 μl of blocking buffer (1% w/v BSA in PBS) per well. The plate was washed 4 times with PBS/Tween20 buffer (0.1% v/v Tween 20 in PBS). 20 μl of diluted peptide solution was transferred into a well and the plate incubated for 1 hour at room temperature. After washing the plate 4 times (as above) 20 μl antibody (0.5, 1, 1.25, 2.5 or 5 μg/ml) was added to the well and the plate was incubated for 1 hour at 20° C. The plate was washed 4 times as above then 20 μlHRP-conjugated anti-mouse IgG (1:5000 dilution in PBS/Tween 20) was added to each well. After a 1 hour incubation at room temperature the plate was washed 3 times (as above) then twice with PBS to remove traces of Tween. The presence of peroxidase was detected by adding 20 μl of freshly prepared TMB Substrate reagent (BD Opt EIA) to each well and incubating at room temperature for 20 min. Finally the plate was read at 650 nm/450 nm.

[3] = biological target: T3, peptide 11 (12 mer from the 2nd …); assay: as above
From the text: as §1, §2, §3

[4] = biological target: T4, peptide 12 (12 mer from the 2nd …); assay: as above
From the text: as §1, §2, §3

[5] = biological target: T5, peptide 15 (12 mer from the 2nd …); assay: as above
From the text: as §1, §2, §3

[6] = biological target: T6, peptide 16 (12 mer from the 2nd …); assay: as above
From the text: as §1, §2, §3

[7] = biological target: T7, peptide 18 (12 mer from the 2nd …); assay: as above
From the text: as §1, §2, §3

[8] = biological target: T8, peptide 19 (12 mer from the 2nd …); assay: as above
From the text: as §1, §2, §3

[9] = biological target: T9, peptide 20 (12 mer from the 2nd …); assay: as above
From the text: as §1, §2, §3

[10] = biological target: T10, peptide 21 (12 mer from the 2nd …); assay: as above
From the text: as §1, §2, §3

[11] = biological target: T11, peptide 1 (12 mer from the 2nd …); assay: as above
From the text: as §1, §2, §3

[12] = biological target: T12, peptide 2 (12 mer from the 2nd …); assay: as above
From the text: as §1, §2, §3

[13] = biological target: T13, peptide 5 (12 mer from the 2nd …); assay: as above
From the text: as §1, §2, §3

[14] = biological target: T14, peptide 6 (12 mer from the 2nd …); assay: as above
From the text: as §1, §2, §3

Row | Binder | binding result [1] | binding result [2] | binding result [3] | binding result [4] | binding result [5] | binding result [6] | binding result [7] | binding result [8] | binding result [9] | binding result [10] | binding result [11] | binding result [12] | binding result [13] | binding result [14]
1 | humanized anti-C5aR antibody hAb-J (antibody, human IgG4 S228P, kappa, also called antibody J) light: DVVMTQSPLSLPVTLGEPASISCRSSQSLVHSNGNTYLHWYLQKPGQSPQLLIYKVSNRFSGVPDRFSGSGSGTDFTLKISRVEAEDVGVYFCSQSTLVPLTFGQGTKLEIKTVAAPSVFIFPPSDEQLKSGTASVVCLLNNFYPREAKVQWKVDNALQSGNSQESVTEQDSKDSTYSLSSTLTLSKADYEKHKVYACEVTHQGLSSPVTKSFNRGEC heavy: not shown | no binding (tested: 5 µg/ml) | no binding | no binding | no binding | no binding | no binding | no binding | no binding | no binding | no binding |  |  |  | 
2 | mouse anti-C5aR monoclonal antibody 7F3 (antibody, V domains shown, Mouse monoclonal from hybridoma ECACC 00110609; also called m7F3; mouse 7F3) VH: QVQLQQSGPELVKPGASVKISCKASGYAFSNSWMNWVKQRPGKGLEWIGRIYPGDGDTKYNGKFKGKATLTADKSSSTAYMQLSSLTSEDSAVYFCARFLLISTVTAVDYWGQGTTLTVSS VL: DVVMTQSPLSLPVSLGNQASISCRSSQSLVHSNGNTYLHWYLQKPGQSPKLLIYKVSNRFSGVPDRFSGSGSGTDFSLKISRVEAEDLGVYFCSQSTLVPLTFGAGTKLELK |  | no binding | no binding | no binding | no binding | no binding | no binding | no binding | no binding | no binding | binds | binds | binds | binds
3 | humanized anti-C5aR antibody hAb-Q (antibody, human IgG4 S228P, kappa, IgG4 with the Ser228Pro mutation; also called antibody Q; anti-C5aR ab) light: DVVMTQSPLSLPVTLGEPASISCRSSQSLVHSNGNTYLHWYLQKPGQSPQLLIYKVSNRFSGVPDRFSGSGSGTDFTLKISRVEAEDVGVYFCSQSTLVPLTFGQGTKLEIKRTVAAPSVFIFPPSDEQLKSGTASVVCLLNNFYPREAKVQWKVDNALQSGNSQESVTEQDSKDSTYSLSSTLTLSKADYEKHKVYACEVTHQGLSSPVTKSFNRGEC heavy: not shown | no binding (tested: 5 µg/ml) | no binding | no binding | no binding | no binding | no binding | no binding | no binding | no binding | no binding | binds | binds | binds | binds
